This data set concerns the molecule itself. As to the kind of experiment: SEC-MALS. A general note: In gel filtration, larger molecules generally elute earlier.

B1: TEX12core (human TEX12, amino acids 49-123) (domain or fragment, UniProt Q9BXU0 49-123, looked up)
chain: KDEALEKDLNDVSKEINLMLSTYAKLLSERAAVDASYIDEIDELFKEANAIENFLIQKREFLRQRFTVIANTLHR
B1: the stoichiometry N – broadly, a count of units in the complex or per binding partner – was 2.

B2: TEX12 (human, amino acids 1-123, full length) (natural protein, UniProt Q9BXU0 1-123, looked up)
chain: MMANHLVKPDNRNCKRPRELESPVPDSPQLSSLGKSDSSFSEISGLFYKDEALEKDLNDVSKEINLMLSTYAKLLSERAAVDASYIDEIDELFKEANAIENFLIQKREFLRQRFTVIANTLHR
For B2, the “stoichiometry N” value was determined as 2.

Values taken from doi:10.1101/509869 (bioRxiv, 2019).
